Earlier results, collected in article PMC10499909.
pKd: −log10 of the molar value.

Target: lactoferrin (species not stated, cited Kd) (UniProt P02788)
Settings: PBS pH 6.8, 37 °C, 30 min in dark; CDs-aptamer 0.05 mg/mL with graphene oxide nanosheets

Chain of lactoferrin (species not stated, cited Kd) (P02788 20-710): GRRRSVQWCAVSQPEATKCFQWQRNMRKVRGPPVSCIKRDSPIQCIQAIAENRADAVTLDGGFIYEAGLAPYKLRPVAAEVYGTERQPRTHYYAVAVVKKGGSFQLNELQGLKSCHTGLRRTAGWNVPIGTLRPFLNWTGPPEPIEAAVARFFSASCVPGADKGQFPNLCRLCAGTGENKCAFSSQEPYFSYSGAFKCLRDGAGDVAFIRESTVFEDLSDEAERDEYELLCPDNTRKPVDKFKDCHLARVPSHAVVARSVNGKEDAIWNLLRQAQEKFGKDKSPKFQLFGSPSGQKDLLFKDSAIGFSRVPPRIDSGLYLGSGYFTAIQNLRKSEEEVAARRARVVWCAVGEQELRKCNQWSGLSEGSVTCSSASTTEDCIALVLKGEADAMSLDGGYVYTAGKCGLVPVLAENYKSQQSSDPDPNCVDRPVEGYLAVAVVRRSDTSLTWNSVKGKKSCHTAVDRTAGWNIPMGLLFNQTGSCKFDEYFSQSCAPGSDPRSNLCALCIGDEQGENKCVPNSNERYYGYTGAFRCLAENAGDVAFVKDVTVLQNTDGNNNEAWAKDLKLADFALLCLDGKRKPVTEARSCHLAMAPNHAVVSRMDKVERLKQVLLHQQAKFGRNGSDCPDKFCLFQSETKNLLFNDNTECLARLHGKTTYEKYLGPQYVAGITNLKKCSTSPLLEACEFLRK

Q: With “AGGCAGGACACCGTAACCGGTGCATCTATGGCTACTAGCTCTTCCTGCCT [LF aptamer]” as the sequence, how does the pKd read?
A: 8.30
